Key:
[1] = molecular target: Tumor necrosis factor alpha (UniProt P01375)
[2] = molecular target: Tumor necrosis factor alpha (UniProt P01375); remark: listed apart in the source

UniProt P01375, sequence (P01375 whole entry): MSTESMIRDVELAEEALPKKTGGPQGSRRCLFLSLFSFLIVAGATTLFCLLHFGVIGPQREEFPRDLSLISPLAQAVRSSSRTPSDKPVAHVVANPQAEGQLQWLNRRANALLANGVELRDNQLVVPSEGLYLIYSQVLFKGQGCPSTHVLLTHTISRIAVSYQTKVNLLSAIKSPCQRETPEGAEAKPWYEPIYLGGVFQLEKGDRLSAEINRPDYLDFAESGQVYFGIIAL

Substance: Etanercept reference product Enbrel (Fc fusion)
- % Potency (redox: after serum-like redox conditions), NFκB-luciferase reporter gene assay; Enbrel (1034018), 1.8% C78-C88 [1]: 96%
- % Potency (redox: after serum-like redox conditions), NFκB-luciferase reporter gene assay; Enbrel (1034842), 1.8% C78-C88 [1]: 95%
- % Potency (redox: after serum-like redox conditions), NFκB-luciferase reporter gene assay; Enbrel (1040542), 1.7% C78-C88 [1]: 107%
- % Potency (redox: after serum-like redox conditions), NFκB-luciferase reporter gene assay; Enbrel (1062728), 1.8% C78-C88 [1]: 98%
- % Potency (redox: after serum-like redox conditions), NFκB-luciferase reporter gene assay; Enbrel (J13793), 1.6% C78-C88 [1]: 100%
- % Potency (untreated), relative to reference standard, NFκB-luciferase reporter gene assay; Enbrel (1034018), 2.8% C78-C88 [1]: 81%
- % Potency (untreated), relative to reference standard, NFκB-luciferase reporter gene assay; Enbrel (1034842), 2.5% C78-C88 [1]: 85%
- % Potency (untreated), relative to reference standard, NFκB-luciferase reporter gene assay; Enbrel (1040542), 2.6% C78-C88 [1]: 89%
- % Potency (untreated), relative to reference standard, NFκB-luciferase reporter gene assay; Enbrel (1062728), 2.5% C78-C88 [1]: 85%
- % Potency (untreated), relative to reference standard, NFκB-luciferase reporter gene assay; Enbrel (J13793), 2.3% C78-C88 [1]: 92%

Substance: Etanercept biosimilar GP2015 (Erelzi) (Fc fusion)
- % Potency (redox: after serum-like redox conditions), NFκB-luciferase reporter gene assay; GP2015 DP (30986553), 1.5% C78-C88 [1]: 103%
- % Potency (redox: after serum-like redox conditions), NFκB-luciferase reporter gene assay; GP2015 DP (30986557), 1.3% C78-C88 [1]: 101%
- % Potency (redox: after serum-like redox conditions), NFκB-luciferase reporter gene assay; GP2015 DP (31161503), 1.7% C78-C88 [1]: 98%
- % Potency (redox: after serum-like redox conditions), NFκB-luciferase reporter gene assay; GP2015 DS (B280815), 1.2% C78-C88 [1]: 103%
- % Potency (redox: after serum-like redox conditions), NFκB-luciferase reporter gene assay; GP2015 process intermediate (CAP.E), 1.6% C78-C88 [1]: 98%
- % Potency (untreated), relative to reference standard, NFκB-luciferase reporter gene assay; GP2015 DP (30986553), 1.2% C78-C88 [1]: 98%
- % Potency (untreated), relative to reference standard, NFκB-luciferase reporter gene assay; GP2015 DP (30986557), 1.8% C78-C88 [1]: 97%
- % Potency (untreated), relative to reference standard, NFκB-luciferase reporter gene assay; GP2015 DP (31161503), 1.2% C78-C88 [1]: 100%
- % Potency (untreated), relative to reference standard, NFκB-luciferase reporter gene assay; GP2015 DS (B280815), 1.0% C78-C88 [1]: 99%
- % Potency (untreated), relative to reference standard, NFκB-luciferase reporter gene assay; GP2015 process intermediate (CAP.E), 3.4% C78-C88 [1]: 76%
- potency (TNFα inhibition NFκB-luciferase reporter gene assay in HEK293 cells); main peak of large scale HIC separation of GP2015 [2]: 100%

Substance: GP2015 late eluting HIC fraction (etanercept enriched in incorrectly disulfide-bridged variants) (Fc fusion)
- % Potency (redox: after serum-like redox conditions that reshuffle the incorrect bridges), NFκB-luciferase reporter gene assay; GP2015 late eluting HIC fraction, 2.0% C78-C88 [1]: 93%
- % Potency (untreated), relative to reference standard, NFκB-luciferase reporter gene assay; GP2015 late eluting HIC fraction, 5.5% C78-C88 [1]: 58%
